Test results from article PMC4769319, “Cohesin Releases DNA through Asymmetric ATPase-Driven Ring Opening” (Molecular Cell, 2016).

Molecular target: T1, full-length StrepII-Smc3 (wild-type) (S. cerevisiae, UniProt P47037 1-1230)
T1 construct: Smc3, S. cerevisiae, full length; source: Sf9 insect cells, expressed alone, purified (Strep-II tag purification, size-exclusion chromatography)
T1 sequence (looked up): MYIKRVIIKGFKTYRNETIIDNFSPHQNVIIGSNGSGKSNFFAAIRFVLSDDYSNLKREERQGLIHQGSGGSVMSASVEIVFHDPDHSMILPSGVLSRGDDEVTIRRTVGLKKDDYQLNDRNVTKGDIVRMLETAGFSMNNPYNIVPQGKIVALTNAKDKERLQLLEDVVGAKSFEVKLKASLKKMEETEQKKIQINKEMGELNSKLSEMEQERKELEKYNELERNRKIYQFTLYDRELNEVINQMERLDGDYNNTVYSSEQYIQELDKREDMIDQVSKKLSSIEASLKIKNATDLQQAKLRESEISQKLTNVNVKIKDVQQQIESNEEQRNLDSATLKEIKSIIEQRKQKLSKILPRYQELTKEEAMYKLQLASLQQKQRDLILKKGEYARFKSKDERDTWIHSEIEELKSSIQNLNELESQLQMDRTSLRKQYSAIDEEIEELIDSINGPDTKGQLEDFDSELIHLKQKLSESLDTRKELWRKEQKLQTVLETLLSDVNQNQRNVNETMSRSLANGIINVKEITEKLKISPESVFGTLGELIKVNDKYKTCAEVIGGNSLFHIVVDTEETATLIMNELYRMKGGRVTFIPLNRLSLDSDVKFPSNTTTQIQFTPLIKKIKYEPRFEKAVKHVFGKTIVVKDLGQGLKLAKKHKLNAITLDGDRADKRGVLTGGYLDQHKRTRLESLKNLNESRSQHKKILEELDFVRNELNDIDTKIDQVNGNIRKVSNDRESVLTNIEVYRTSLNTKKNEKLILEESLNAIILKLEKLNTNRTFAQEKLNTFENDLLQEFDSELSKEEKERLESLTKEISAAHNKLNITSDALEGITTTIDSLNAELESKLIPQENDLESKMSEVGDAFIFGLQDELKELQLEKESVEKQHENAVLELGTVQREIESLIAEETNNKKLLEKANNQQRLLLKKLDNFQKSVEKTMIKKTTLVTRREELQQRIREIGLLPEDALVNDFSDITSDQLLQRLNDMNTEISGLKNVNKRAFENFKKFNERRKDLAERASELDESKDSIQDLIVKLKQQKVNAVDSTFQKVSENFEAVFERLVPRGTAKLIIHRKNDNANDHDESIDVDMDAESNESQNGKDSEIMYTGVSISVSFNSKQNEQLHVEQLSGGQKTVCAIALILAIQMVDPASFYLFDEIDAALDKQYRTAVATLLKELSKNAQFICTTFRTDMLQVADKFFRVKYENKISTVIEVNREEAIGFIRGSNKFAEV
Assay: scanning force microscopy; full-length Smc1 co-incubated with full-length Smc3 in the presence of ATP, seeded on mica; V shapes and ring shapes counted as heterodimers
Settings: both partners purified

B1: full-length HIS6-Smc1 (wild-type) (natural protein, S. cerevisiae, UniProt P32908 1-1225, looked up)
chain: MGRLVGLELSNFKSYRGVTKVGFGESNFTSIIGPNGSGKSNMMDAISFVLGVRSNHLRSNILKDLIYRGVLNDENSDDYDNEGAASSNPQSAYVKAFYQKGNKLVELMRIISRNGDTSYKIDGKTVSYKDYSIFLENENILIKAKNFLVFQGDVEQIAAQSPVELSRMFEEVSGSIQYKKEYEELKEKIEKLSKSATESIKNRRRIHGELKTYKEGINKNEEYRKQLDKKNELQKFQALWQLYHLEQQKEELTDKLSALNSEISSLKGKINNEMKSLQRSKSSFVKESAVISKQKSKLDYIFKDKEKLVSDLRLIKVPQQAAGKRISHIEKRIESLQKDLQRQKTYVERFETQLKVVTRSKEAFEEEIKQSARNYDKFKLNENDLKTYNCLHEKYLTEGGSILEEKIAVLNNDKREIQEELERFNKRADISKRRITEELSITGEKLDTQLNDLRVSLNEKNALHTERLHELKKLQSDIESANNQEYDLNFKLRETLVKIDDLSANQRETMKERKLRENIAMLKRFFPGVKGLVHDLCHPKKEKYGLAVSTILGKNFDSVIVENLTVAQECIAFLKKQRAGTASFIPLDTIETELPTLSLPDSQDYILSINAIDYEPEYEKAMQYVCGDSIICNTLNIAKDLKWKKGIRGKLVTIEGALIHKAGLMTGGISGDANNRWDKEEYQSLMSLKDKLLIQIDELSNGQRSNSIRAREVENSVSLLNSDIANLRTQVTQQKRSLDENRLEIKYHNDLIEKEIQPKITELKKKLDDLENTKDNLVKEKEALQNNIFKEFTSKIGFTIKEYENHSGELMRQQSKELQQLQKQILTVENKLQFETDRLSTTQRRYEKAQKDLENAQVEMKSLEEQEYAIEMKIGSIESKLEEHKNHLDELQKKFVTKQSELNSSEDILEDMNSNLQVLKRERDGIKEDIEKFDLERVTALKNCKISNINIPISSETTIDDLPISSTDNEAITISNSIDINYKGLPKKYKENNTDSARKELEQKIHEVEEILNELQPNARALERYDEAEGRFEVINNETEQLKAEEKKILNQFLKIKKKRKELFEKTFDYVSDHLDAIYRELTKNPNSNVELAGGNASLTIEDEDEPFNAGIKYHATPPLKRFKDMEYLSGGEKTVAALALLFAINSYQPSPFFVLDEVDAALDITNVQRIAAYIRRHRNPDLQFIVISLKNTMFEKSDALVGVYRQQQENSSKIITLDLSNYAE
notes: Smc1, S. cerevisiae, full length; Always co-expressed and co-purified with StrepII-Scc1-C; vector pFastBac NKI-LIC; details in Supplemental Experimental Procedures; not shown: His6, N-terminal, kept
Q: Does B1 bind?
A: binds

B2: full-length HIS6-Smc1 D1164E (natural protein, S. cerevisiae, UniProt P32908 1-1225, looked up)
chain: MGRLVGLELSNFKSYRGVTKVGFGESNFTSIIGPNGSGKSNMMDAISFVLGVRSNHLRSNILKDLIYRGVLNDENSDDYDNEGAASSNPQSAYVKAFYQKGNKLVELMRIISRNGDTSYKIDGKTVSYKDYSIFLENENILIKAKNFLVFQGDVEQIAAQSPVELSRMFEEVSGSIQYKKEYEELKEKIEKLSKSATESIKNRRRIHGELKTYKEGINKNEEYRKQLDKKNELQKFQALWQLYHLEQQKEELTDKLSALNSEISSLKGKINNEMKSLQRSKSSFVKESAVISKQKSKLDYIFKDKEKLVSDLRLIKVPQQAAGKRISHIEKRIESLQKDLQRQKTYVERFETQLKVVTRSKEAFEEEIKQSARNYDKFKLNENDLKTYNCLHEKYLTEGGSILEEKIAVLNNDKREIQEELERFNKRADISKRRITEELSITGEKLDTQLNDLRVSLNEKNALHTERLHELKKLQSDIESANNQEYDLNFKLRETLVKIDDLSANQRETMKERKLRENIAMLKRFFPGVKGLVHDLCHPKKEKYGLAVSTILGKNFDSVIVENLTVAQECIAFLKKQRAGTASFIPLDTIETELPTLSLPDSQDYILSINAIDYEPEYEKAMQYVCGDSIICNTLNIAKDLKWKKGIRGKLVTIEGALIHKAGLMTGGISGDANNRWDKEEYQSLMSLKDKLLIQIDELSNGQRSNSIRAREVENSVSLLNSDIANLRTQVTQQKRSLDENRLEIKYHNDLIEKEIQPKITELKKKLDDLENTKDNLVKEKEALQNNIFKEFTSKIGFTIKEYENHSGELMRQQSKELQQLQKQILTVENKLQFETDRLSTTQRRYEKAQKDLENAQVEMKSLEEQEYAIEMKIGSIESKLEEHKNHLDELQKKFVTKQSELNSSEDILEDMNSNLQVLKRERDGIKEDIEKFDLERVTALKNCKISNINIPISSETTIDDLPISSTDNEAITISNSIDINYKGLPKKYKENNTDSARKELEQKIHEVEEILNELQPNARALERYDEAEGRFEVINNETEQLKAEEKKILNQFLKIKKKRKELFEKTFDYVSDHLDAIYRELTKNPNSNVELAGGNASLTIEDEDEPFNAGIKYHATPPLKRFKDMEYLSGGEKTVAALALLFAINSYQPSPFFVLDEVDAALEITNVQRIAAYIRRHRNPDLQFIVISLKNTMFEKSDALVGVYRQQQENSSKIITLDLSNYAE
notes: Smc1, S. cerevisiae, full length, D-loop mutant; Co-purified with StrepII-Scc1-C; also called D-loop mutant D1164E; not shown: His6, N-terminal, kept
Q: Does B2 bind?
A: binds

B3: full-length HIS6-Smc1 K39I (natural protein, S. cerevisiae, UniProt P32908 1-1225, looked up)
chain: MGRLVGLELSNFKSYRGVTKVGFGESNFTSIIGPNGSGISNMMDAISFVLGVRSNHLRSNILKDLIYRGVLNDENSDDYDNEGAASSNPQSAYVKAFYQKGNKLVELMRIISRNGDTSYKIDGKTVSYKDYSIFLENENILIKAKNFLVFQGDVEQIAAQSPVELSRMFEEVSGSIQYKKEYEELKEKIEKLSKSATESIKNRRRIHGELKTYKEGINKNEEYRKQLDKKNELQKFQALWQLYHLEQQKEELTDKLSALNSEISSLKGKINNEMKSLQRSKSSFVKESAVISKQKSKLDYIFKDKEKLVSDLRLIKVPQQAAGKRISHIEKRIESLQKDLQRQKTYVERFETQLKVVTRSKEAFEEEIKQSARNYDKFKLNENDLKTYNCLHEKYLTEGGSILEEKIAVLNNDKREIQEELERFNKRADISKRRITEELSITGEKLDTQLNDLRVSLNEKNALHTERLHELKKLQSDIESANNQEYDLNFKLRETLVKIDDLSANQRETMKERKLRENIAMLKRFFPGVKGLVHDLCHPKKEKYGLAVSTILGKNFDSVIVENLTVAQECIAFLKKQRAGTASFIPLDTIETELPTLSLPDSQDYILSINAIDYEPEYEKAMQYVCGDSIICNTLNIAKDLKWKKGIRGKLVTIEGALIHKAGLMTGGISGDANNRWDKEEYQSLMSLKDKLLIQIDELSNGQRSNSIRAREVENSVSLLNSDIANLRTQVTQQKRSLDENRLEIKYHNDLIEKEIQPKITELKKKLDDLENTKDNLVKEKEALQNNIFKEFTSKIGFTIKEYENHSGELMRQQSKELQQLQKQILTVENKLQFETDRLSTTQRRYEKAQKDLENAQVEMKSLEEQEYAIEMKIGSIESKLEEHKNHLDELQKKFVTKQSELNSSEDILEDMNSNLQVLKRERDGIKEDIEKFDLERVTALKNCKISNINIPISSETTIDDLPISSTDNEAITISNSIDINYKGLPKKYKENNTDSARKELEQKIHEVEEILNELQPNARALERYDEAEGRFEVINNETEQLKAEEKKILNQFLKIKKKRKELFEKTFDYVSDHLDAIYRELTKNPNSNVELAGGNASLTIEDEDEPFNAGIKYHATPPLKRFKDMEYLSGGEKTVAALALLFAINSYQPSPFFVLDEVDAALDITNVQRIAAYIRRHRNPDLQFIVISLKNTMFEKSDALVGVYRQQQENSSKIITLDLSNYAE
notes: Smc1, S. cerevisiae, full length, Walker A mutant; Co-purified with StrepII-Scc1-C; also called Walker A mutant Smc1 K39I; not shown: His6, N-terminal, kept
Q: Does B3 bind?
A: binds

B4: full-length HIS6-Smc1 L1129V (natural protein, S. cerevisiae, UniProt P32908 1-1225, looked up)
chain: MGRLVGLELSNFKSYRGVTKVGFGESNFTSIIGPNGSGKSNMMDAISFVLGVRSNHLRSNILKDLIYRGVLNDENSDDYDNEGAASSNPQSAYVKAFYQKGNKLVELMRIISRNGDTSYKIDGKTVSYKDYSIFLENENILIKAKNFLVFQGDVEQIAAQSPVELSRMFEEVSGSIQYKKEYEELKEKIEKLSKSATESIKNRRRIHGELKTYKEGINKNEEYRKQLDKKNELQKFQALWQLYHLEQQKEELTDKLSALNSEISSLKGKINNEMKSLQRSKSSFVKESAVISKQKSKLDYIFKDKEKLVSDLRLIKVPQQAAGKRISHIEKRIESLQKDLQRQKTYVERFETQLKVVTRSKEAFEEEIKQSARNYDKFKLNENDLKTYNCLHEKYLTEGGSILEEKIAVLNNDKREIQEELERFNKRADISKRRITEELSITGEKLDTQLNDLRVSLNEKNALHTERLHELKKLQSDIESANNQEYDLNFKLRETLVKIDDLSANQRETMKERKLRENIAMLKRFFPGVKGLVHDLCHPKKEKYGLAVSTILGKNFDSVIVENLTVAQECIAFLKKQRAGTASFIPLDTIETELPTLSLPDSQDYILSINAIDYEPEYEKAMQYVCGDSIICNTLNIAKDLKWKKGIRGKLVTIEGALIHKAGLMTGGISGDANNRWDKEEYQSLMSLKDKLLIQIDELSNGQRSNSIRAREVENSVSLLNSDIANLRTQVTQQKRSLDENRLEIKYHNDLIEKEIQPKITELKKKLDDLENTKDNLVKEKEALQNNIFKEFTSKIGFTIKEYENHSGELMRQQSKELQQLQKQILTVENKLQFETDRLSTTQRRYEKAQKDLENAQVEMKSLEEQEYAIEMKIGSIESKLEEHKNHLDELQKKFVTKQSELNSSEDILEDMNSNLQVLKRERDGIKEDIEKFDLERVTALKNCKISNINIPISSETTIDDLPISSTDNEAITISNSIDINYKGLPKKYKENNTDSARKELEQKIHEVEEILNELQPNARALERYDEAEGRFEVINNETEQLKAEEKKILNQFLKIKKKRKELFEKTFDYVSDHLDAIYRELTKNPNSNVELAGGNASLTIEDEDEPFNAGIKYHATPPLKRFKDMEYVSGGEKTVAALALLFAINSYQPSPFFVLDEVDAALDITNVQRIAAYIRRHRNPDLQFIVISLKNTMFEKSDALVGVYRQQQENSSKIITLDLSNYAE
notes: Smc1, S. cerevisiae, full length, Signature motif mutant; Co-purified with StrepII-Scc1-C; also called Signature motif mutant L1129V; not shown: His6, N-terminal, kept
Q: Does B4 bind?
A: binds
